Laboratory results as given in patent publication US9579382B2.

Target: human CD20 (human) (UniProt P11836)

Substance rituximab (antibody) has a % of cytotoxicity (dead CFSE+ 7-AAD+ Raji target cells), ADCC with PBMC effector cells at 25:1 for 6 hours of 25%.
